Biological target: T1, Vascular Endothelial Growth Factor (VEGF), His-tagged, refolded dimer (UniProt P15692-4 37-135)
T1 sequence (looked up): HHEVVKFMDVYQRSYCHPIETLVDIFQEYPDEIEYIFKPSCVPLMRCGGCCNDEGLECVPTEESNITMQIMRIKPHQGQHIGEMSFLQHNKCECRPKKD

fold increase in luminescence: 15 fold
B1: Flt-1 domain 2 fused to the N-terminal half of firefly luciferase (residues 2-416) (receptor, UniProt P17948 129-229, looked up, not shown: small tags and cut ends)
chain: SDTGRPFVEMYSEIPEIIHMTEGRELVIPCRVTSPNITVTLKKFPLDTLIPDGKRIIWDSRKGFIISNATYKEIGLLTCEATVNGHLYKTNYLTHRQTNTIEDAKNIKKGPAPFYPLEDGTAGEQLHKAMKRYALVPGTIAFTDAHIEVNITYAEYFEMSVRLAEAMKRYGLNTNHRIVVCSENSLQFFMPVLGALFIGVAVAPANDIYNERELLNSMNISQPTVVFVSKKGLQKILNVQKKLPIIQKIIIMDSKTDYQGFQSMYTFVTSHLPPGFNEYDFVPESFDRDKTIALIMNSSGSTGLPKGVALPHRTACVRFSHARDPIFGNQIIPDTAILSVVPFHHGFGMFTTLGYLICGFRVVLMYRFEEELFLRSLQDYKIQSALLVPTLFSFFAKSTLIDKYDLSNLHEIASGGAPLSKEVGEAVAKRFHLPGIRQGYGLTETTSAILITPEGDDKPGAVGKVVPFFEAKVVDLDTGKTLGVNQRGELCVRGPMIMSGYVNNPEATNALIDKDG
